Measurements reported in patent publication US20150065561A1 (GEORGIA STATE UNIVERSITY RESEARCH FOUNDATION, published 2015).

Molecular target: T1, CYLD (UniProt Q9NQC7 1-956, limits assumed)
T1 construct: also called deubiquitinase CYLD; cylindromatosis
T1 sequence (looked up): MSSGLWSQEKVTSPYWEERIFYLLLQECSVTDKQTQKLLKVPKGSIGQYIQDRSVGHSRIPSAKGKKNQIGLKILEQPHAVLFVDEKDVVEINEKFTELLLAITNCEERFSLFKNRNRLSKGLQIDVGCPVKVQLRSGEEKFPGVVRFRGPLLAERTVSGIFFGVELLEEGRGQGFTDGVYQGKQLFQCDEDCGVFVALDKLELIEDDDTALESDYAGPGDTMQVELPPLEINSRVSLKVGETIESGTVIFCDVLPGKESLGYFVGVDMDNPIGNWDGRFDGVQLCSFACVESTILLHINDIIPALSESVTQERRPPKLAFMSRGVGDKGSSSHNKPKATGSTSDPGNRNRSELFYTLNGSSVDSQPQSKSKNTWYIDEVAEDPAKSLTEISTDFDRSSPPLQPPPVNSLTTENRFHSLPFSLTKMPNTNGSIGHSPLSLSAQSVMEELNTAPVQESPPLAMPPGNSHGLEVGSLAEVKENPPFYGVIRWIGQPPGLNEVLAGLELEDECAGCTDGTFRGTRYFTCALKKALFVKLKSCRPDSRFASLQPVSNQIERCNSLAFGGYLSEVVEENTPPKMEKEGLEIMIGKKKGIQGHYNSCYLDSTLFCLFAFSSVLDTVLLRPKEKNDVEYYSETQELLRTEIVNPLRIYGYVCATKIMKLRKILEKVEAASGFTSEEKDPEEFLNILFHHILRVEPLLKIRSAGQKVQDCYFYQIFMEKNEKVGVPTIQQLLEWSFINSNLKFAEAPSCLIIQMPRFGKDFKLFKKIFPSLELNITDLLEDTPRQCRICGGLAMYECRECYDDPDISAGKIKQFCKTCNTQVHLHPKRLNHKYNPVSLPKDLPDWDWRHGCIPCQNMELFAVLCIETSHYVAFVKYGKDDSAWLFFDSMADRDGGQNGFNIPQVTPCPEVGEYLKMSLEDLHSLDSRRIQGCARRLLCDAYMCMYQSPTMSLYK
Test: co-immunoprecipitation
Experimental: Western blot, immunoprecipitation and ubiquitination experiments were performed as follows. Western blots were performed using whole-cell extracts, separated on 8 or 10% SDS-PAGE gels, and transferred to polyvinylidine di& uoride membranes. The membrane was blocked with a solution of PBS containing 0.1% Tween 20 (PBS-T) and 5% BSA. The membrane was then incubated in a 1:2,000 dilution of a primary antibody in 5% BSA-PBS-T. After three washes in PBS-T, the membrane was incubated with 1:5,000 dilution of the corresponding secondary antibody in 3% non-fact skim milk-PBS-T. Respective proteins were visualized by using enhanced chemiluminescence detection reagents, according to the manufacturer's instructions. To conduct immunoprecipitation analysis, cell lysates were incubated with 1 μg of primary antibodies overnight, at 4° C., followed by 2-h incubation with protein A/G-agarose beads (Invitrogen). Immunoprecipitates were then suspended in a sample buffer, separated on 8% SDS-PAGE, transferred to polyvinylidine difluoride membrane, and detected by immunoblot analysis, as described above. […]

B1: CHIP (enzyme, UniProt Q9UNE7 1-303, looked up)
chain: MKGKEEKEGGARLGAGGGSPEKSPSAQELKEQGNRLFVGRKYPEAAACYGRAITRNPLVAVYYTNRALCYLKMQQHEQALADCRRALELDGQSVKAHFFLGQCQLEMESYDEAIANLQRAYSLAKEQRLNFGDDIPSALRIAKKKRWNSIEERRIHQESELHSYLSRLIAAERERELEECQRNHEGDEDDSHVRAQQACIEAKHDKYMADMDELFSQVDEKRKKRDIPDYLCGKISFELMREPCITPSGITYDRKDIEEHLQRVGHFDPVTRSPLTQEQLIPNLAMKEVIDAFISENGWVEDY
  binding result: no binding
